This note sets out measurements from the supplement of paper PMC9112550, “Optimization of the antimicrobial peptide Bac7 by deep mutational scanning” (BMC Biology, 2022).

The subject of the data set is Escherichia coli TOP10. The data set can be described thus: shrunken log2 fold change of peptide-encoding DNA abundance (4.5 h post-induction vs induction); higher = less antimicrobial activity (less host growth inhibition). The settings on record: time post-induction: 4.5 h; library: site-saturation at positions 5, 18, 19, 20.
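Further: peptides expressed intracellularly from a pBAD plasmid library in pooled LB shake-flask culture, induced with 0.3% L-arabinose, DNA abundance read by NGS, three biological replicates, DESeq2 with apeglm shrinkage.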

RRIRLRPPRLPRPRPRPFWMPRP: the “shrunken log2 fold change” value is -0.0876. For the sequence RRIRERPPRLPRPRPRPRKMPRP, the “shrunken log2 fold change” value was -0.0569.

For RRIRLRPPRLPRPRPRPEEAPRP, the “shrunken log2 fold change” value is 0.495. As for RRIRKRPPRLPRPRPRPNTDPRP, the figure is -0.261; as for RRIRSRPPRLPRPRPRPPSQPRP, 0.235. For RRIRHRPPRLPRPRPRPAFPPRP, the “shrunken log2 fold change” value worked out at 0.46. As for RRIRPRPPRLPRPRPRPRAPPRP, the “shrunken log2 fold change” value stood at 0.683. For RRIRFRPPRLPRPRPRPAGGPRP the value was 0.382; for RRIRYRPPRLPRPRPRPEHQPRP, -0.464; for RRIRDRPPRLPRPRPRPCQCPRP, -0.017. Consider RRIRIRPPRLPRPRPRPNAWPRP, for which the “shrunken log2 fold change” value turned out to be 0.213. As for RRIRRRPPRLPRPRPRPTLMPRP, the figure is 0.581; as for RRIRYRPPRLPRPRPRPIRFPRP, -0.0383. For RRIRYRPPRLPRPRPRPFTRPRP the value was -0.0174; for RRIRIRPPRLPRPRPRPSRMPRP, -0.271.

With RRIRFRPPRLPRPRPRPQQPPRP, the “shrunken log2 fold change” value was -0.00359.

Regarding RRIRRRPPRLPRPRPRPSHQPRP, the “shrunken log2 fold change” value came to 0.0351. For RRIRERPPRLPRPRPRPIPGPRP the value was -0.124; for RRIRSRPPRLPRPRPRPINWPRP, -0.161. For the sequence RRIRVRPPRLPRPRPRPLECPRP, the “shrunken log2 fold change” value was -0.041. On to RRIRGRPPRLPRPRPRPVMDPRP, for which the “shrunken log2 fold change” value is 0.96.

With RRIRGRPPRLPRPRPRPVVPPRP, the “shrunken log2 fold change” value was determined as 0.338. On to RRIRPRPPRLPRPRPRPDDGPRP, for which the “shrunken log2 fold change” value is -0.21.

As for RRIRMRPPRLPRPRPRPCDIPRP, the “shrunken log2 fold change” value is -0.151.

Regarding RRIRRRPPRLPRPRPRPFINPRP, the “shrunken log2 fold change” value is -0.211. Consider RRIRNRPPRLPRPRPRPNEEPRP, for which the “shrunken log2 fold change” value is -0.00613.

As to RRIRNRPPRLPRPRPRPDFKPRP, the “shrunken log2 fold change” value is -0.0167.

In the case of RRIRIRPPRLPRPRPRPIQTPRP, the “shrunken log2 fold change” value was -0.0155. On to RRIRVRPPRLPRPRPRPCVAPRP, for which the “shrunken log2 fold change” value came to 0.159. RRIRFRPPRLPRPRPRPISAPRP: the “shrunken log2 fold change” value was 0.0624. For RRIRHRPPRLPRPRPRPWKNPRP the value was -0.187; for RRIRFRPPRLPRPRPRPEWSPRP, 0.219; for RRIRCRPPRLPRPRPRPPESPRP, 0.347. For the sequence RRIRIRPPRLPRPRPRPLEQPRP, the “shrunken log2 fold change” value was -0.419. As for RRIRPRPPRLPRPRPRPFTFPRP, the figure is -0.189; as for RRIRHRPPRLPRPRPRPTALPRP, 0.0443. For the sequence RRIRARPPRLPRPRPRPYNCPRP, the “shrunken log2 fold change” value was -0.0254. Consider RRIRVRPPRLPRPRPRPEIWPRP, for which the “shrunken log2 fold change” value is 0.223. Take RRIRIRPPRLPRPRPRPTGDPRP: the “shrunken log2 fold change” value is 0.109.

Consider RRIRLRPPRLPRPRPRPNCYPRP, for which the “shrunken log2 fold change” value was -0.422. For RRIRWRPPRLPRPRPRPEWAPRP the value was 0.497. Turning to RRIRSRPPRLPRPRPRPKKCPRP, the “shrunken log2 fold change” value was -0.0782. For RRIRSRPPRLPRPRPRPDMVPRP the value was -0.00858. In the case of RRIRLRPPRLPRPRPRPKMGPRP, the “shrunken log2 fold change” value was found to be 0.0108. As for RRIRMRPPRLPRPRPRPEYVPRP, the figure is 0.16; as for RRIRSRPPRLPRPRPRPWHRPRP, -0.024. Regarding RRIRSRPPRLPRPRPRPGDNPRP, the “shrunken log2 fold change” value stood at 0.0473. Consider RRIRTRPPRLPRPRPRPNAPPRP, for which the “shrunken log2 fold change” value is -0.0472. Regarding RRIRHRPPRLPRPRPRPTFHPRP, the “shrunken log2 fold change” value was -0.326. Regarding RRIRPRPPRLPRPRPRPQTLPRP, the “shrunken log2 fold change” value amounted to 0.000929.

Consider RRIRPRPPRLPRPRPRPSEPPRP, for which the “shrunken log2 fold change” value is -0.213. RRIRKRPPRLPRPRPRPFPVPRP: the “shrunken log2 fold change” value is -0.288. As to RRIRYRPPRLPRPRPRPECCPRP, the “shrunken log2 fold change” value was -0.0698. As for RRIRPRPPRLPRPRPRPCIKPRP, the figure is -0.441.

Turning to RRIRGRPPRLPRPRPRPTTCPRP, the “shrunken log2 fold change” value came to 0.849. For RRIRFRPPRLPRPRPRPPLAPRP the value was 0.628; for RRIRDRPPRLPRPRPRPLWAPRP, 0.0876. Turning to RRIRARPPRLPRPRPRPWWEPRP, the “shrunken log2 fold change” value amounted to 0.37. As for RRIRKRPPRLPRPRPRPDPVPRP, the figure is -0.146; as for RRIRLRPPRLPRPRPRPSAYPRP, 0.0888.

In the case of RRIRLRPPRLPRPRPRPAVEPRP, the “shrunken log2 fold change” value was -0.0223. For the sequence RRIRNRPPRLPRPRPRPYCWPRP, the “shrunken log2 fold change” value is -0.425. For RRIRARPPRLPRPRPRPWIIPRP the value was -0.0127; for RRIRSRPPRLPRPRPRPWLWPRP, 1.45; for RRIRCRPPRLPRPRPRPLSGPRP, -0.0515. As for RRIRTRPPRLPRPRPRPGDQPRP, the figure is -0.0663. For RRIRCRPPRLPRPRPRPAHNPRP the value was -0.151. For RRIRDRPPRLPRPRPRPSVWPRP, the “shrunken log2 fold change” value amounted to 0.404. As for RRIRARPPRLPRPRPRPEIQPRP, the figure is 1.71; as for RRIRERPPRLPRPRPRPIYYPRP, -0.726; as for RRIRLRPPRLPRPRPRPDWIPRP, -0.0697.

Turning to RRIRGRPPRLPRPRPRPVLRPRP, the “shrunken log2 fold change” value was 0.656.

For the sequence RRIRARPPRLPRPRPRPYPIPRP, the “shrunken log2 fold change” value is -0.249. As for RRIRVRPPRLPRPRPRPVWGPRP, the figure is 1.8; as for RRIRTRPPRLPRPRPRPATTPRP, -0.181; as for RRIRERPPRLPRPRPRPAQSPRP, 0.0517. As for RRIRLRPPRLPRPRPRPTEAPRP, the figure is -0.00104.

RRIRYRPPRLPRPRPRPTGVPRP: the “shrunken log2 fold change” value was -0.0415. For RRIRSRPPRLPRPRPRPNKIPRP the value was -0.294.

With RRIRPRPPRLPRPRPRPTHGPRP, the “shrunken log2 fold change” value came out at 0.478. RRIRVRPPRLPRPRPRPHKEPRP: the “shrunken log2 fold change” value came to 0.0216. For RRIRTRPPRLPRPRPRPYWFPRP the value was -0.535.

With RRIRVRPPRLPRPRPRPKDNPRP, the “shrunken log2 fold change” value is -0.438. Take RRIRWRPPRLPRPRPRPVYEPRP: the “shrunken log2 fold change” value was -0.00561. On to RRIRWRPPRLPRPRPRPKYFPRP, for which the “shrunken log2 fold change” value was -0.302. For RRIRWRPPRLPRPRPRPCCSPRP the value was -0.0402; for RRIRVRPPRLPRPRPRPHKCPRP, -0.274; for RRIRGRPPRLPRPRPRPACPPRP, 0.46. RRIRARPPRLPRPRPRPEPDPRP: the “shrunken log2 fold change” value was -0.0215. For RRIRHRPPRLPRPRPRPMVHPRP the value was 0.00748.

Regarding RRIRHRPPRLPRPRPRPQSAPRP, the “shrunken log2 fold change” value was -0.116.

In the case of RRIRCRPPRLPRPRPRPIMMPRP, the “shrunken log2 fold change” value is -0.211. As for RRIRSRPPRLPRPRPRPGKCPRP, the figure is 0.0216; as for RRIRSRPPRLPRPRPRPFYFPRP, -0.55; as for RRIRDRPPRLPRPRPRPFNLPRP, -0.176. As for RRIRGRPPRLPRPRPRPLCYPRP, the figure is 0.238; as for RRIRMRPPRLPRPRPRPKVDPRP, -0.0311.

On to RRIRPRPPRLPRPRPRPWDDPRP, for which the “shrunken log2 fold change” value is -0.144. With RRIRNRPPRLPRPRPRPYIDPRP, the “shrunken log2 fold change” value came out at 0.0433.

Take RRIRMRPPRLPRPRPRPQRYPRP: the “shrunken log2 fold change” value is -0.00185. For RRIRARPPRLPRPRPRPIYSPRP, the “shrunken log2 fold change” value is -0.227.

Consider RRIRRRPPRLPRPRPRPNTDPRP, for which the “shrunken log2 fold change” value is -0.106.

With RRIRRRPPRLPRPRPRPYWFPRP, the “shrunken log2 fold change” value was -0.299. As for RRIRCRPPRLPRPRPRPWYFPRP, the figure is -0.264; as for RRIRMRPPRLPRPRPRPAWGPRP, 0.81; as for RRIRTRPPRLPRPRPRPGETPRP, -0.105. For RRIRSRPPRLPRPRPRPHCRPRP the value was -0.172; for RRIRVRPPRLPRPRPRPQGVPRP, -0.275; for RRIRMRPPRLPRPRPRPTWMPRP, 0.25. For RRIRLRPPRLPRPRPRPDYCPRP the value was 0.0561; for RRIRVRPPRLPRPRPRPQWLPRP, 0.188. RRIRCRPPRLPRPRPRPGWEPRP: the “shrunken log2 fold change” value came to 0.253. For RRIRIRPPRLPRPRPRPWYVPRP the value was -0.247.

RRIRWRPPRLPRPRPRPDDLPRP: the “shrunken log2 fold change” value is -0.024.

For the sequence RRIRLRPPRLPRPRPRPRAIPRP, the “shrunken log2 fold change” value came out at 0.0282. As for RRIRCRPPRLPRPRPRPRAHPRP, the figure is 0.361; as for RRIRMRPPRLPRPRPRPHQIPRP, -0.00201. Turning to RRIRQRPPRLPRPRPRPIQMPRP, the “shrunken log2 fold change” value is -0.0176. For RRIRMRPPRLPRPRPRPCKEPRP the value was -0.00822; for RRIRKRPPRLPRPRPRPILYPRP, -0.505. As to RRIRCRPPRLPRPRPRPTIMPRP, the “shrunken log2 fold change” value is -0.562. As for RRIRTRPPRLPRPRPRPQMAPRP, the figure is -0.177; as for RRIRIRPPRLPRPRPRPGAMPRP, 0.046; as for RRIRERPPRLPRPRPRPTLDPRP, 0.149.

Turning to RRIRSRPPRLPRPRPRPFISPRP, the “shrunken log2 fold change” value was -0.152.
